Test results taken from patent US20250163122A1, “COMPOSITIONS AND METHODS FOR TREATING AIRWAY MUCUS DYSFUNCTION” (BOARD OF REGENTS, THE UNIVERSITY OF TEXAS SYSTEM, priority 2022, published 2025).
Entries after “also recorded” stand apart in the source; their conditions may differ. Where a SMILES comes first, the peptide text is derived from it. Bridges are numbered along the chain shown (N, C = ends). [ ]: non-standard residue; d: D form. S5 = C=CCCC[C@](C)(N)C(=O)O

Key:
[1] = CD spectroscopy, α-helical content of peptides; assay type: physicochemical; conditions: for helical content, ranking in words: among the peptides tested
Protocol: CD spectroscopy. CD spectra were measured with an AVIV stop-flow CD spectropolarimeter at 190 to 250 nm using a cell with a 1 mm path-length. The sample containing […] of synthesized peptides in PBS buffer (137 mM NaCl, 2.7 mM KCl, 10 mM Na2HPO4, and 2 mM KH2PO4, pH 7.4) was measured at 20° C. For the correction of the baseline error, the signal from a blank run with PBS buffer was subtracted from all the experimental spectra. The α-helical content of each peptide was calculated by dividing the mean residue ellipticity [φ]222obs by the reported [φ]222obs for a model helical decapeptide (Yang et al., 1986).

neuronal SNAREs and Syt1 = experiment: Ensemble lipid mixing assay, neuronal PM and SV vesicles; assay type: biochemical; conditions: for effect on ensemble lipid mixing: with or without Ca2+, peptide concentration-dependent
Text: Vesicle reconstitution. For the ensemble lipid mixing assay, the lipid composition of the SV vesicles was phosphatidylcholine (PC) (46%), phosphatidylethanolamine (PE) (20%), phosphatidylserine (PS) (12%), cholesterol (20%), and 1,1′-dioctadecyl-3,3,3′,3′-tetramethylindodicarbocyanine perchlorate (DiD) (Invitrogen) (2%); for the both neuronal and airway PM vesicles the lipid composition was Brain Total Lipid Extract supplemented 3.5 mol % PIP2, 0.1 mol % biotinylated phosphatidylethanolamine (PE) and 1,1′-dioctadecyl-3,3,3′,3′-tetramethylindocarbocyanine perchlorate (DiI) (Invitrogen). All the lipids are from Avanti Polar Lipids.
(§1) A 3-5 fold excess of SNAP-25A or SNAP-23 (with respect to Stx1A or Stx3) and 3.5 mol % PIP2 were added to the protein-lipid mixture for neuronal or airway PM vesicles. […] For the preparation of SV, SG, VAMP2, or VAMP8 vesicles for single vesicle content mixing assay, 50 mM sulforhodamine B (Thermo Fisher Scientific) was added to the protein-lipid mixture. The vesicles subsequently formed during size exclusion chromatography using a Sepharose CL-4B column, packed under near constant pressure by gravity with a peristaltic pump (GE Healthcare) in a 5.5 ml column with a ˜5 ml bed volume that was equilibrated with buffer V (20 mM HEPES, pH 7.4, 90 mM NaCl) supplemented with 20 μM EGTA and 0.1% 2-mercaptoethanol. The eluent was subjected to dialysis into 21 of detergent-free buffer V supplemented with 20 μM EGTA, 0.1% 2-mercaptoethanol, 5 g of Bio-beads SM2 (Bio-Rad) and 0.8 g/L Chelex 100 resin (Bio-Rad). After 4 hours, the buffer was exchanged with 21 of fresh buffer V supplemented with 20 μM EGTA, 0.1% 2-mercaptoethanol and Bio-beads, and the dialysis continued for another 12 h (overnight). […] For ensemble lipid mixing assay, the reconstitution method is the same as that for the single vesicle content mixing assay, except that 50 mM sulforhodamine B was omitted for all the steps.
Bulk lipid mixing experiments with neuronal synaptic proteins. Protein-reconstituted neuronal PM and SV vesicles were mixed at a molar ratio of 1:1, both at 0.1 mM lipid concentration. Lipid mixing is measured by monitoring the fluorescent emission (670 nm) of the DiD dyes in the SV vesicles by FRET using 530 nm laser light excitation of the DiI dyes in neuronal PM vesicles. The fluorescence intensity was monitored in two channels at 570 nm and 670 nm, respectively. Fluorescence changes were recorded with a Varian Cary Eclipse model fluorescence spectrophotometer using a quartz cell of 100 μl with a 5 mm path length. All measurements were performed at 35° C.

[2] = biological target: T1, neuronal SNAREs and Syt1_QM (Rattus norvegicus, UniProt P21707, E295A/R281A/R398A/R399A/Y338W); experiment: Single vesicle content mixing assay, neuronal SNAREs and Syt1_QM; assay type: biochemical; conditions: 10 μM peptide, raw count; for Ca2+ triggered fusion events: 500 μM Ca2+
T1 construct: made in house
Text: For single vesicle content mixing assay, the lipid composition of the SV, SG, VAMP2, or VAMP8 vesicles was phosphatidylcholine (PC) (48%), phosphatidylethanolamine (PE) (20%), phosphatidylserine (PS) (12%), and cholesterol (20%); for both the neuronal and airway PM vesicles the lipid composition was Brain Total Lipid Extract supplemented 3.5 mol % PIP2, and 0.1 mol % biotinylated phosphatidylethanolamine (PE).
The reconstitution method for neuronal PM and SV vesicles was described in detail previously (see Lai et al., 2017; Kyoung et al., 2011; and Lai et al., 2014). The same methods were used for airway PM, SG, VAMP2, and VAMP8 vesicles. Dried lipid films were dissolved in 110 mM OG buffer containing purified proteins at protein-to-lipid ratios of 1:200 for VAMP2 and Stx1A for SV and neuronal PM vesicles, respectively (or 1:200 for VAMP8 and Stx3 for SG and airway PM vesicles, respectively), and 1:800 for Syt1 for SV vesicles (or 1:1200 for Syt2 for SG vesicles).
as §1
Single vesicle content mixing experiments. All single vesicle fusion and single molecule experiments were performed on a prism-type total internal reflection fluorescence (TIRF) microscope using 532 nm (green) laser (CrystaLaser) excitation. Two observation channels were created by a 640 nm single-edge dichroic beamsplitter (FF640-FDi01-25x36, Shemrock): one channel was used for the fluorescence emission intensity of the content dyes and the other channel for that of the Cy5 dye that are part of the injected Ca^2+-solution. The two channels were recorded on two adjacent rectangular areas (45×90 m^2) of a charge-coupled device (CCD) camera (iXon+DV 897E, Andor Technology). The imaging data were recorded with the smCamera software developed by Taekjip Ha, Johns Hopkins University, Baltimore.
Flow chambers were assembled by creating a “sandwich” consisting of a quartz slide and a glass coverslip that were both coated with polyethylene glycol (PEG) molecules consisting 0.1% (w/v) biotinylated-PEG except when stated otherwise, and using double-sided tape to create up to five flow-chambers.
The single vesicle content mixing assay described in Lai et al. (2014) was used to monitor vesicle-vesicle association, Ca^2+-independent, and Ca^2+-triggered fusion. The surface of the quartz slides was passivated by coating the surface with polyethylene glycol (PEG) molecules which alleviated non-specific binding of vesicles. The same protocol and quality controls (surface coverage and non-specific binding) were used as described previously (Kyoung et al., 2011; Kyoung et al., 2012) except that PEG-SVA (Laysan Bio) instead of mPEG-SCM (Laysan Bio) was used since it has a longer half-life. […]

T1 sequence (P21707 whole entry R281A/E295A/Y338W/R398A/R399A, the tested form may be a part): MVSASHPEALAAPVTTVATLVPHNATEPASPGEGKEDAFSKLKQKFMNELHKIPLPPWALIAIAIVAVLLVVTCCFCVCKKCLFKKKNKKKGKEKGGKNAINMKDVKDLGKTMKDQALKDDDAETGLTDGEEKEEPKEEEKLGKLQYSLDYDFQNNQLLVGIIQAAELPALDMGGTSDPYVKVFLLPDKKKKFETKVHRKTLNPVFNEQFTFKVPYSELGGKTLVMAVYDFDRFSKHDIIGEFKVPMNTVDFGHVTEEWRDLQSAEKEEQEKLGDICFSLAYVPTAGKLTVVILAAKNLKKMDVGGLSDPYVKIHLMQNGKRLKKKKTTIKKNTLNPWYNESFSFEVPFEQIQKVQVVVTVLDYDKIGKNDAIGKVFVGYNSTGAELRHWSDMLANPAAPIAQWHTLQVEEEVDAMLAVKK

Compound	helical content, ranking in words [1]	effect on ensemble lipid mixing (neuronal SNAREs and Syt1)	Ca2+ triggered fusion events [2]	Ca2+ independent fusion events [2]	helicity / helical content ([1]; in solution, CD [φ]222 vs model helical decapeptide) [%]	effect on Ca2+-triggered ensemble lipid mixing (neuronal SNAREs and Syt1)	effect on Ca2+-independent ensemble lipid mixing (neuronal SNAREs and Syt1; 10 μM and 100 μM peptide)
CC[C@H](C)[C@H](NC(=O)[C@]1(C)CCCC=CCCC[C@](C)(NC(=O)[C@H](CCC(=O)O)NC(=O)[C@H](CCC(=O)O)NC(C)=O)C(=O)N[C@@H](CCCCN)C(=O)N[C@@H](CC(=O)O)C(=O)N[C@@H](C)C(=O)N1)C(=O)N[C@@H](CCCNC(=N)N)C(=O)N[C@@]1(C)CCCC=CCCC[C@@](C)(C(=O)N[C@@H](CC(=O)O)C(=O)N[C@@H](CCC(=O)O)C(=O)N[C@@H](CCC(N)=O)C(=O)N[C@@H](CS)C(N)=O)NC(=O)[C@H](CCSC)NC(=O)[C@H](C(C)C)NC(=O)[C@H](CC(C)C)NC1=O [SP9, Ac-EE(S5)KDA(S5)IR(S5)LVM(S5)DEQC-amide] (Ac-EE[S5]KDA[S5]IR[S5]LVM[S5]DEQC-NH2; staple 3-7, 10-14)	largest helical content; also recorded: highest α-helicity	substantially inhibited	260	242	–	–	–
Ac-SKD(S5)GIR(S5)LV(S5)LDE(S5)GEQL-amide (Ac-SKD[S5]GIR[S5]LV[S5]LDE[S5]GEQL-NH2; staple 11-15, 4-8; SMILES CC[C@H](C)[C@@H]1NC(=O)CNC(=O)[C@@](C)(NC(=O)[C@H](CC(=O)O)NC(=O)[C@H](CCCCN)NC(=O)[C@H](CO)NC(C)=O)CCCC=CCCC[C@@](C)(C(=O)N[C@@H](CC(C)C)C(=O)N[C@H](C(=O)N[C@@]2(C)CCCC=CCCC[C@@](C)(C(=O)NCC(=O)N[C@@H](CCC(=O)O)C(=O)N[C@@H](CCC(N)=O)C(=O)N[C@@H](CC(C)C)C(N)=O)NC(=O)[C@H](CCC(=O)O)NC(=O)[C@H](CC(=O)O)NC(=O)[C@H](CC(C)C)NC2=O)C(C)C)NC(=O)[C@H](CCCNC(=N)N)NC1=O) [SP10]	largest helical content	substantially inhibited	367	252	–	–	–
Ac-SKD(S5)GIR(S5)LVMLDE(S5)GEQ(S5)DR-amide (Ac-SKD[S5]GIR[S5]LVMLDE[S5]GEQ[S5]DR-NH2; staple 15-19, 4-8; SMILES CC[C@H](C)[C@@H]1NC(=O)CNC(=O)[C@@](C)(NC(=O)[C@H](CC(=O)O)NC(=O)[C@H](CCCCN)NC(=O)[C@H](CO)NC(C)=O)CCCC=CCCC[C@@](C)(C(=O)N[C@@H](CC(C)C)C(=O)N[C@H](C(=O)N[C@@H](CCSC)C(=O)N[C@@H](CC(C)C)C(=O)N[C@@H](CC(=O)O)C(=O)N[C@@H](CCC(=O)O)C(=O)N[C@@]2(C)CCCC=CCCC[C@@](C)(C(=O)N[C@@H](CC(=O)O)C(=O)N[C@@H](CCCNC(=N)N)C(N)=O)NC(=O)[C@H](CCC(N)=O)NC(=O)[C@H](CCC(=O)O)NC(=O)CNC2=O)C(C)C)NC(=O)[C@H](CCCNC(=N)N)NC1=O) [SP1]	largest helical content	substantially inhibited	282	226	–	–	–
Ac-SKDA(S5)IRT(S5)VM(S5)DEQ(S5)EQL-amide (Ac-SKDA[S5]IRT[S5]VM[S5]DEQ[S5]EQL-NH2; staple 12-16, 5-9; SMILES CC[C@H](C)[C@@H]1NC(=O)[C@@](C)(NC(=O)[C@H](C)NC(=O)[C@H](CC(=O)O)NC(=O)[C@H](CCCCN)NC(=O)[C@H](CO)NC(C)=O)CCCC=CCCC[C@@](C)(C(=O)N[C@H](C(=O)N[C@@H](CCSC)C(=O)N[C@@]2(C)CCCC=CCCC[C@@](C)(C(=O)N[C@@H](CCC(=O)O)C(=O)N[C@@H](CCC(N)=O)C(=O)N[C@@H](CC(C)C)C(N)=O)NC(=O)[C@H](CCC(N)=O)NC(=O)[C@H](CCC(=O)O)NC(=O)[C@H](CC(=O)O)NC2=O)C(C)C)NC(=O)[C@H]([C@@H](C)O)NC(=O)[C@H](CCCNC(=N)N)NC1=O) [SP4]	largest helical content	substantially inhibited	248	222	–	–	–
EESKDAGIRTLVMLDEQGEQLD [Peptide P0, non-stapled SNAP-25A fragment used as a control, reference compound]	–	–	–	–	5	little effect	little effect
